# Where two headings read alike, the source gives them in different places.
# T1: human TIGIT expressed on CHO-K1 cells (human, UniProt Q495A1 22-244)
# T1 construct: also called CHO/human TIGIT cells; CHO-TIGIT cells
# T1 sequence: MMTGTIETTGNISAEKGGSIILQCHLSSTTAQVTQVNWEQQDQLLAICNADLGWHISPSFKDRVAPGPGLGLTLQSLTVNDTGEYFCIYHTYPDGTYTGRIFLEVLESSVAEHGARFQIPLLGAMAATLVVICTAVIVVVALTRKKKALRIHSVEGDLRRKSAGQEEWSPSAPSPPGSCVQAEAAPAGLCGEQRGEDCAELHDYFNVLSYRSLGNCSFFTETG
# T2: TIGIT on TIGIT effector cells (UniProt Q495A1 22-244, limits assumed)
# T2 sequence (looked up): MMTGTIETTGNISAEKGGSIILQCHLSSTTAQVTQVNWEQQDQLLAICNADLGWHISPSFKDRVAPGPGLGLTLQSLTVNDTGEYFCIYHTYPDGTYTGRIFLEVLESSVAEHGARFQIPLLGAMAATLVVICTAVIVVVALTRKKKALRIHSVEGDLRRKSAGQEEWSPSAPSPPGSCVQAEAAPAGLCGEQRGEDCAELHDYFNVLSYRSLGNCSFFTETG
# T3: human TIGIT-His protein (Acrobiosystems) (human, UniProt Q495A1 22-141)
# T3 construct: Bought; Genbank NP_776160
# T3 sequence: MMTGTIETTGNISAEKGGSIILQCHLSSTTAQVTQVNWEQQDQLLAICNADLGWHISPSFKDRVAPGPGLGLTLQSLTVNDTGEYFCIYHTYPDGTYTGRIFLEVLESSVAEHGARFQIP
# T4: mouse TIGIT-His protein (Acrobiosystems) (mouse, UniProt P86176 29-148, limits assumed)
# T4 construct: bought
# T4 sequence (looked up): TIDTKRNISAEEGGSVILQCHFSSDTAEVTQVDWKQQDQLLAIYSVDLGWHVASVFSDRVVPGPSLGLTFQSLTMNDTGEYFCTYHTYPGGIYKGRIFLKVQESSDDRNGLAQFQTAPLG
# B1: 22G2 (IgG1) mAb (antibody, V domains shown)
# VH: QVQLQESGPGLVKPSETLSLTCTVSGGSVSSGIYYWSWIRQPPGKGLEWIGYIYYSGSTNYNPSLKSRVTISVDTSKNQFSLKLSSVTAADTAVYYCARDYYVSGNYYNVDYYFFGVDVWGQGTTVTVSS
# VL: EIVLTQSPATLSLSPGERATLSCRASQSVSSYLAWYQQKPGQAPRLLIYDASNRATGIPARFSGSGSGTDFTLTISSLEPEDFAVYYCQQRSNWPPLFTFGPGTKVDIKR
# notes: also called 22G2 (IgG1) (anti-TIGIT)
# B2: BTP-11 (bispecific antibody, human IgG4 S228P, kappa)
# heavy: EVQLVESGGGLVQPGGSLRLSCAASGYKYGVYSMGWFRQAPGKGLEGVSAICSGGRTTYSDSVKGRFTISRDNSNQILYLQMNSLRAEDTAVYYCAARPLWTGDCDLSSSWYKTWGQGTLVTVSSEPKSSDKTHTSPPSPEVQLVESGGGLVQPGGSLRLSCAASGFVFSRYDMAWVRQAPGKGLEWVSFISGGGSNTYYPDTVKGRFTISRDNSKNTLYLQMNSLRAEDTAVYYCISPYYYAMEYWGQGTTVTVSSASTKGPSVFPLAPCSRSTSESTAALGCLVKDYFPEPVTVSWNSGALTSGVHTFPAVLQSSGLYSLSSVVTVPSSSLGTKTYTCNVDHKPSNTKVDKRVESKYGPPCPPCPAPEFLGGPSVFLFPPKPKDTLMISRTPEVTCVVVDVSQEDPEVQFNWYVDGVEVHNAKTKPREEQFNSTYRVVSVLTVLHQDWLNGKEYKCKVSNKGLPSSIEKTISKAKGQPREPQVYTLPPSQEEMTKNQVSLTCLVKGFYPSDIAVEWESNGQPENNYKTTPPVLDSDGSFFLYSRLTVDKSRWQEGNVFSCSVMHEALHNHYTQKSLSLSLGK
# light: DIQMTQSPSSVSASVGDRVTITCKASQDVDTAVAWYQQKPGKAPKLLIYWASTRHTGVPSRFSGSGSGTDFTLTISSLQPEDFATYYCQQYSTFPWTFGGGTKVEIKRTVAAPSVFIFPPSDEQLKSGTASVVCLLNNFYPREAKVQWKVDNALQSGNSQESVTEQDSKDSTYSLSSTLTLSKADYEKHKVYACEVTHQGLSSPVTKSFNRGEC
# notes: AS19584VH28 - mutated hIgG1 hinge - PD1-BM-min heavy chain (IgG4); also called BTP-11 (IgG4); PD-1×TIGIT BABP
# B3: BTP-13 (bispecific antibody, human IgG4 S228P, kappa)
# heavy: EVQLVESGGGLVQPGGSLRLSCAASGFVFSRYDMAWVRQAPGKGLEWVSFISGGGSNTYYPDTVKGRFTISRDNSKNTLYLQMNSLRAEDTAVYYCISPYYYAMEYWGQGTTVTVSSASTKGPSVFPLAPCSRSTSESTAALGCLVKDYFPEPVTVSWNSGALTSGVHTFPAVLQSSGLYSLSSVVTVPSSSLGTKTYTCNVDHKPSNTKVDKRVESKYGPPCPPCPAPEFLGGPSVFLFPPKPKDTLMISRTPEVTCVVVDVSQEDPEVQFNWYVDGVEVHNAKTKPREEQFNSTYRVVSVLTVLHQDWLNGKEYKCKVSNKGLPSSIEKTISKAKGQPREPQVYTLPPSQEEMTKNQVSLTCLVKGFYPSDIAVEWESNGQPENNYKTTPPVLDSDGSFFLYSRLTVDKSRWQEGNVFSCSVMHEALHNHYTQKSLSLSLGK
# light: EVQLVESGGGLVQPGGSLRLSCAASGYKYGVYSMGWFRQAPGKGLEGVSAICSGGRTTYSDSVKGRFTISRDNSNQILYLQMNSLRAEDTAVYYCAARPLWTGDCDLSSSWYKTWGQGTLVTVSSEPKSSDKTHTSPPSPDIQMTQSPSSVSASVGDRVTITCKASQDVDTAVAWYQQKPGKAPKLLIYWASTRHTGVPSRFSGSGSGTDFTLTISSLQPEDFATYYCQQYSTFPWTFGGGTKVEIKRTVAAPSVFIFPPSDEQLKSGTASVVCLLNNFYPREAKVQWKVDNALQSGNSQESVTEQDSKDSTYSLSSTLTLSKADYEKHKVYACEVTHQGLSSPVTKSFNRGEC
# notes: AS19584VH28 - mutated hIgG1 hinge - PD1-BM-min light chain; PD1-BM-min heavy chain (IgG4); also called BTP-13 (IgG4); PD-1×TIGIT BABP
# Key:
# [1] = biological target: T1, human TIGIT expressed on CHO-K1 cells; assay: FACS, CHO-K1 cells expressing human TIGIT
# [2] = biological target: T2, TIGIT on TIGIT effector cells; assay: cell-based or functional assay
# [3] = biological target: T5, cynomolgus TIGIT expressed on CHO-K1 cells (cynomolgus, UniProt A0A7N9I9V4 89-312); assay: FACS, CHO-K1 cells expressing cynomolgus TIGIT
# T5 construct: whole, on cells
# T5 sequence (A0A7N9I9V4 entry or part of it): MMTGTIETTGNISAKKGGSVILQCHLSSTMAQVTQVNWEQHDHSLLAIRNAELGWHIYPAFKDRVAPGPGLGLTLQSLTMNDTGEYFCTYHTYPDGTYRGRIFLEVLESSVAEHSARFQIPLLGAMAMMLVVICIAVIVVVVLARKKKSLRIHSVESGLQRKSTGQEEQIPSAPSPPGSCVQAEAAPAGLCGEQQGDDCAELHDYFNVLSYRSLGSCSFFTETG
# [4] = biological target: T1, human TIGIT expressed on CHO-K1 cells; assay: FACS, CHO-TIGIT cells
# [5] = biological target: T1, human TIGIT expressed on CHO-K1 cells; assay: FACS competition, CD155 binding to CHO-TIGIT cells
# [6] = biological target: T5, cynomolgus TIGIT expressed on CHO-K1 …; assay: FACS, CHO-K1 cells expressing cynomolgus TIGIT; remark: listed apart in the source
# [7] = biological target: T1, human TIGIT expressed on CHO-K1 cells; assay: FACS competition, CD155 binding to CHO-TIGIT cells; remark: listed apart in the source
# [8] = biological target: T2, TIGIT on TIGIT effector cells; assay: cell-based or functional assay; remark: listed apart in the source
# [9] = biological target: T3, human TIGIT-His protein (Acrobiosystems); assay: SPR (BIAcore T200), target amine-coupled to CM5 chip
# [10] = biological target: T6, cynomolgus TIGIT-His protein (Acrobiosystems) (cynomolgus, UniProt A0A7N9I9V4 89-209); assay: as above
# T6 construct: bought
# T6 sequence (A0A7N9I9V4 entry or part of it): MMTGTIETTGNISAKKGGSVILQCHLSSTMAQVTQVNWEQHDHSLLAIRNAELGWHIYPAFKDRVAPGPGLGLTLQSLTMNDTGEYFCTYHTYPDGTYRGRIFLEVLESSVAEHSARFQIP
# [11] = biological target: T1, human TIGIT expressed on CHO-K1 cells; assay: FACS, CHO-K1 cells expressing human TIGIT; remark: listed apart in the source
# [12] = biological target: T2, TIGIT on TIGIT effector cells; assay: cell-based or functional assay; remark: listed apart in the source
# [13] = biological target: T1, human TIGIT expressed on CHO-K1 cells; assay: FACS competition, biotinylated CD155-Fc on CHO/human TIGIT cells
# [14] = biological target: T3, human TIGIT-His protein (Acrobiosystems); assay: SPR (BIAcore T200), target amine-coupled to CM5 chip; remark: listed apart in the source
# [15] = biological target: T6, cynomolgus TIGIT-His protein …; assay: as above; remark: listed apart in the source
# [16] = biological target: T1, human TIGIT expressed on CHO-K1 cells; assay: FACS, CHO-TIGIT cells; remark: listed apart in the source
# [17] = biological target: T2, TIGIT on TIGIT effector cells; assay: cell-based or functional assay; remark: listed apart in the source
# [18] = biological target: T1, human TIGIT expressed on CHO-K1 cells; assay: FACS competition, biotinylated CD155-Fc on CHO/human TIGIT cells; remark: listed apart in the source
# [19] = biological target: T7, PD-1 expressed on cells (UniProt Q15116 25-288, limits assumed); assay: FACS competition, PD-L1 binding to CHO-PD-1 cells
# T7 construct: whole, on cells; also called CHO-PD-1 cells; PD-1 effector cells
# T7 sequence (Q15116 25-288 limits assumed): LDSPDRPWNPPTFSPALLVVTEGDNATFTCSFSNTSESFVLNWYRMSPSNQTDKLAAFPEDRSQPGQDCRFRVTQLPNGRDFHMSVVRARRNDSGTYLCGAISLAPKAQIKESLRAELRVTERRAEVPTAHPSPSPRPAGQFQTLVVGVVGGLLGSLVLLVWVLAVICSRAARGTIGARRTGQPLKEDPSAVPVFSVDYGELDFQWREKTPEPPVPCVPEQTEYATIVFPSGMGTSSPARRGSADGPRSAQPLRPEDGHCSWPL
# [20] = biological target: T7, PD-1 expressed on cells; assay: cell-based or functional assay
# [21] = biological target: T7, PD-1 expressed on cells; assay: FACS, CHO-PD-1 cells
# [22] = biological target: T8, human PD-1 (Acrobiosystems) (human, UniProt Q15116 25-167); assay: SPR as in Example 2
# T8 construct: bought
# T8 sequence (Q15116 25-167 limits assumed): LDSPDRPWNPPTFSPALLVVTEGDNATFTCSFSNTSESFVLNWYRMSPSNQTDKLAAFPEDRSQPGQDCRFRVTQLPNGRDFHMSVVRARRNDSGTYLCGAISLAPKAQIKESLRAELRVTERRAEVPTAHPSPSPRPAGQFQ
# [23] = biological target: T4, mouse TIGIT-His protein (Acrobiosystems); assay: SPR as in Example 2
binder,measurement,setting,value
B1,EC50,[1],1.14 nM
same,TIGIT IL-2 release EC50,[2],2.26 nM
same,TIGIT Reporter assay EC50,[2],6.01 nM
same,EC50,[3],1.12 nM
same,EC50,[4],1.6 nM
same,EC50,[5],1.11 nM
same,EC50,[6],0.604 nM
same,EC50,[7],2.31 nM
same,IL-2 release assay EC50,[8],3.07 nM
same,Reporter assay EC50,[8],3.04 nM
same,Kd,[9],0.19 nM
same,koff,[9],0.00027 s⁻¹
same,kon,[9],1.4e+06 M⁻¹ s⁻¹
same,Kd,[10],3.4 nM
same,koff,[10],0.0068 s⁻¹
same,kon,[10],2e+06 M⁻¹ s⁻¹
same,EC50,[11],0.494 nM
same,TIGIT Reporter assay EC50,[12],4.65 nM
same,EC50,[13],1.94 nM
same,Kd,[14],0.12 nM
same,koff,[14],0.00016 s⁻¹
same,kon,[14],1.4e+06 M⁻¹ s⁻¹
same,Kd,[15],4.1 nM
same,koff,[15],0.0056 s⁻¹
same,kon,[15],1.3e+06 M⁻¹ s⁻¹
same,EC50,[16],2.46 nM
same,"TIGIT/CD155 blockade reporter assay, EC50",[17],7.92 nM
same,"TIGIT/CD155 blockade reporter assay, Signal span",[17],108
same,EC50,[18],2.7 nM
B2,EC50,[19],8.68 nM
same,PD-1 cell based assay EC50,[20],8.51 nM
same,TIGIT IL-2 release EC50,[12],0.778 nM
same,TIGIT Reporter assay EC50,[12],7.81 nM
same,EC50,[21],6.31 nM
same,Kd,[22],4 nM
same,Kd,[23],0.5 nM
B3,EC50,[19],2.21 nM
same,PD-1 cell based assay EC50,[20],2.33 nM
same,TIGIT IL-2 release EC50,[12],0.565 nM
same,TIGIT Reporter assay EC50,[12],4.03 nM
same,EC50,[21],1.92 nM
same,Kd,[22],0.42 nM
same,Kd,[23],0.62 nM

# — patent publication US20210054071A1 (NANJING LEGEND BIOTECH, published 2021)
